{
  "source": "paper PMC9079162",
  "molecular_target": "human complement regulatory factor H (hfH) (human) (UniProt P08603)",
  "sequence (P08603 19-1231)": "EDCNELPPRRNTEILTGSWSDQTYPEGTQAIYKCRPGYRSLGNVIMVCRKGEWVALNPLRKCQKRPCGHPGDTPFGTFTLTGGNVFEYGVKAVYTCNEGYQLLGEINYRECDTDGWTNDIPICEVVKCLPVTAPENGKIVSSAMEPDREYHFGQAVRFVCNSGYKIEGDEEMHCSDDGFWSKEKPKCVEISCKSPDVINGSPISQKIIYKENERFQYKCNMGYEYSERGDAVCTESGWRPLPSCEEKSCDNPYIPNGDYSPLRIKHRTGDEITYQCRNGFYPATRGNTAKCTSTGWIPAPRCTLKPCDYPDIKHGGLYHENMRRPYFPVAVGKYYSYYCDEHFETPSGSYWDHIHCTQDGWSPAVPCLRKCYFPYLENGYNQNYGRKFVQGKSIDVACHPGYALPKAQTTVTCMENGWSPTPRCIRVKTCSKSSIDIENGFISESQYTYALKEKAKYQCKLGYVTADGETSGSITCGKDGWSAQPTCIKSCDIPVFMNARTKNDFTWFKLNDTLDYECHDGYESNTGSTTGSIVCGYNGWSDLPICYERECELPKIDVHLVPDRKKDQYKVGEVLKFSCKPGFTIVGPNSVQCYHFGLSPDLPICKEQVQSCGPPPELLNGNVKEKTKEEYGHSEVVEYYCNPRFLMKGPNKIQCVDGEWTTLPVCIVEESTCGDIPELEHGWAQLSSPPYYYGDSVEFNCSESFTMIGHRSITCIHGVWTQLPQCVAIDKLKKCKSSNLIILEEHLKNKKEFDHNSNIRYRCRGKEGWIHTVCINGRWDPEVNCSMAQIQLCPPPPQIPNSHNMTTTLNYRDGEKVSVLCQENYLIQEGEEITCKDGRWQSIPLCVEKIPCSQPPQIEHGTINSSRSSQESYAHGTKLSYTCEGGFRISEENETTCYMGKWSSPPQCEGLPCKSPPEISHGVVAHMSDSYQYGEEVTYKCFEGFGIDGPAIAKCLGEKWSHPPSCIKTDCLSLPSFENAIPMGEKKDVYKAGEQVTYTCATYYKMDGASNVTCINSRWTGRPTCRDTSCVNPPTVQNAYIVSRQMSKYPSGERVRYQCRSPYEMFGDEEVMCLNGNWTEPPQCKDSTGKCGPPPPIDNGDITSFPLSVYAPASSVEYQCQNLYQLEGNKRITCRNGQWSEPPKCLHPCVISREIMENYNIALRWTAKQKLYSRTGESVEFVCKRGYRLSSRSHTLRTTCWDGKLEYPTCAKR",
  "assay": "SPR",
  "data": [
    {"substance": "factor H binding protein (fHbp) variant1-2,3.x from MenB clinical isolate NL096 (from UniProt E6MV22 20-274) (natural protein)", "values": [
      {"measurement": "Kd", "value": 30.4, "unit": "nM"}
    ]}
  ]
}
